Test results reported in PMC10786891, “Massively parallel profiling of RNA-targeting CRISPR-Cas13d”.
Changes are numbered by the printed parent chain. Numbers in names are those of the source.

T1: EsCas13d, nuclease-dead (Eubacterium siraeum, UniProt B0MS50, R295A;H300A;R849A;H854A)
T1 sequence: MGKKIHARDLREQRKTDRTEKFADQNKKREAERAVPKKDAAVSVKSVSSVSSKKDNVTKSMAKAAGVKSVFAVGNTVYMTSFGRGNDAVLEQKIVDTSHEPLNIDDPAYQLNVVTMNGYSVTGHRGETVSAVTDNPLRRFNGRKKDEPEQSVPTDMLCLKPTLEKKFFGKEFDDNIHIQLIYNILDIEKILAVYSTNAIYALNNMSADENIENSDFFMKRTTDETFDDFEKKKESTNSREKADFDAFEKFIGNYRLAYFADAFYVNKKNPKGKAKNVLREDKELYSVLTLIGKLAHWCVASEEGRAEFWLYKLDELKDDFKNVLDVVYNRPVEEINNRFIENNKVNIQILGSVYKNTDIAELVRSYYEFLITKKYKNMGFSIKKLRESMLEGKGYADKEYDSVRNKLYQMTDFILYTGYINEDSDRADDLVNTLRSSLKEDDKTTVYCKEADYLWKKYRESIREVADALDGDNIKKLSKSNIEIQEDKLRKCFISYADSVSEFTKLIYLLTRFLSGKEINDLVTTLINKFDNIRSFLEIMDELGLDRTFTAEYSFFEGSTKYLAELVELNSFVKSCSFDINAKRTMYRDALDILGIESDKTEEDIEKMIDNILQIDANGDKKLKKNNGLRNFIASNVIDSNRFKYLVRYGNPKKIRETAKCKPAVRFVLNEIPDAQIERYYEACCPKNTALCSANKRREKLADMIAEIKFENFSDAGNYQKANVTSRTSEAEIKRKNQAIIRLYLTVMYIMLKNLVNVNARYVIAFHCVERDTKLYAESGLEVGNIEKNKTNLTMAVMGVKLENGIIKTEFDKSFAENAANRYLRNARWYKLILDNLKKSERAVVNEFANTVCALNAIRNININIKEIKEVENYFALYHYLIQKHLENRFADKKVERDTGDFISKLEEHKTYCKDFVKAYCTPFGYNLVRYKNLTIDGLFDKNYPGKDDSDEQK

B1: target 1 G5A,U10G (mixed)
RNA 1: CACCCGUGCAAAAAUGCAGGGGUCUAAAACUGAGCGGAUAACCUCUCUAUGG
RNA 2: GGGAAUGGAUCCACAUCUACGAAUUCGUACCAUAGAGAGGUGAUCCACUCACCGAGAUCGGAAGAGCACACGU
B2: target 1 insA 3' of 19,insA 3' of 11 (mixed)
RNA 1: B1 RNA 1
RNA 2: GGGAAUGGAUCCACAUCUACGAAUUCGUACCAUAAGAGAGGUAUAUCCGCUCACCGAGAUCGGAAGAGCACACGU
B3: target 1 insU 3' of 22,insG 3' of 1 (mixed)
RNA 1: B1 RNA 1
RNA 2: GGGAAUGGAUCCACAUCUACGAAUUCGUACUCAUAGAGAGGUUAUCCGCUCAGCCGAGAUCGGAAGAGCACACGU
B4: target 1 insU 3' of 14,insC 3' of 3 (mixed)
RNA 1: B1 RNA 1
RNA 2: GGGAAUGGAUCCACAUCUACGAAUUCGUACCAUAGAGAUGGUUAUCCGCUCCACCGAGAUCGGAAGAGCACACGU
B5: target 1 insU 3' of 22,insA 3' of 2 (mixed)
RNA 1: B1 RNA 1
RNA 2: B3 RNA 2 with G53A
B6: target 1 insA 3' of 21,insC 3' of 9 (mixed)
RNA 1: B1 RNA 1
RNA 2: B2 RNA 2 with U33A, A34U, A43U, U44A, A45C
B7: target 1 insA 3' of 5,insU 3' of 2 (mixed)
RNA 1: B1 RNA 1
RNA 2: B4 RNA 2 with U39G, G41U, U43A, A44U, U45C, C47G, G48A, C52U
B8: target 1 A1U,U11G (mixed)
RNA 1: B1 RNA 1
RNA 2: B1 RNA 2 with U41G, G42U, A47G, A51U
B9: target 1 U3G,G13C (mixed)
RNA 1: B1 RNA 1
RNA 2: B1 RNA 2 with G39C, G42U, A47G, U49G
B10: target 1 insA 3' of 6,insU 3' of 4 (mixed)
RNA 1: B1 RNA 1
RNA 2: B4 RNA 2 with U39G, G41U, U43A, A44U, U45C, C47A, C51U
B11: target 1 G5C,G13U (mixed)
RNA 1: B1 RNA 1
RNA 2: B1 RNA 2 with G39U, G42U, A47C
B12: target 1 insU 3' of 5,insC 3' of 5 (mixed)
RNA 1: B1 RNA 1
RNA 2: B4 RNA 2 with U39G, G41U, U43A, A44U, U45C, C47G, G48U, U50C, C51U
B13: target 1 del11,del13 (mixed)
RNA 1: B1 RNA 1
RNA 2: GGGAAUGGAUCCACAUCUACGAAUUCGUACCAUAGAGAGUAUCCGCUCACCGAGAUCGGAAGAGCACACGU
B14: target 1 insC 3' of 17,insC 3' of 3 (mixed)
RNA 1: B1 RNA 1
RNA 2: B4 RNA 2 with A36C, G37A, A38G, U39A
B15: target 1 insA 3' of 21,insG 3' of 16 (mixed)
RNA 1: B1 RNA 1
RNA 2: B2 RNA 2 with U33A, A34U, A39G, G40A, U42G, A43U
B16: target 1 U3G,A9C (mixed)
RNA 1: B1 RNA 1
RNA 2: B1 RNA 2 with G42U, A43C, A47G, U49G
B17: target 1 insC 3' of 12,insA 3' of 8 (mixed)
RNA 1: B1 RNA 1
RNA 2: B4 RNA 2 with U39G, G41C, C46A, G48C, C49G, U50C, C51U
B18: target 1 C2A,G12C (mixed)
RNA 1: B1 RNA 1
RNA 2: B1 RNA 2 with G40C, G42U, A47G, C50A
B19: target 1 insG 3' of 22,insA 3' of 3 (mixed)
RNA 1: B1 RNA 1
RNA 2: B3 RNA 2 with U31G, C51A, A52C, G53A
B20: target 1 insU 3' of 22,insC 3' of 1 (mixed)
RNA 1: B1 RNA 1
RNA 2: B3 RNA 2 with G53C
B21: target 1 G5U,A14C (mixed)
RNA 1: B1 RNA 1
RNA 2: B1 RNA 2 with A38C, G42U, A47U
B22: target 1 G15U,G17C (mixed)
RNA 1: B1 RNA 1
RNA 2: B1 RNA 2 with G35C, G37U, G42U, A47G
B23: target 1 insA 3' of 17,insC 3' of 3 (mixed)
RNA 1: B1 RNA 1
RNA 2: B4 RNA 2 with G37A, A38G, U39A
B24: target 1 del9,del13 (mixed)
RNA 1: B1 RNA 1
RNA 2: B13 RNA 2 with A41U
B25: target 1 G13U,A14U (mixed)
RNA 1: B1 RNA 1
RNA 2: B1 RNA 2 with A38U, G39U, G42U, A47G
B26: target 1 A9U,A18C (mixed)
RNA 1: B1 RNA 1
RNA 2: B1 RNA 2 with A34C, G42U, A43U, A47G
B27: target 1 C4G,U10A (mixed)
RNA 1: B1 RNA 1
RNA 2: B1 RNA 2 with G42A, A47G, C48G
B28: target 1 insC 3' of 8 (mixed)
RNA 1: B1 RNA 1
RNA 2: GGGAAUGGAUCCACAUCUACGAAUUCGUACCAUAGAGAGGUUAUCCCGCUCACCGAGAUCGGAAGAGCACACGU
B29: target 1 G13A,A14U (mixed)
RNA 1: B1 RNA 1
RNA 2: B1 RNA 2 with A38U, G39A, G42U, A47G
B30: target 1 insU 3' of 22,insU 3' of 1 (mixed)
RNA 1: B1 RNA 1
RNA 2: B3 RNA 2 with G53U
B31: target 1 insU 3' of 7,insA 3' of 5 (mixed)
RNA 1: B1 RNA 1
RNA 2: B2 RNA 2 with A35G, G36A, A37G, G38A, A39G, G41U, A45C, C48G, G49A
B32: target 1 U3G,G5A (mixed)
RNA 1: B1 RNA 1
RNA 2: B1 RNA 2 with G42U, U49G
B33: target 1 C6A,C7A (mixed)
RNA 1: B1 RNA 1
RNA 2: B1 RNA 2 with G42U, C45A, C46A, A47G

Biological target: T1, EsCas13d, nuclease-dead
Assay: crRNA (strand 1, pre-loaded); Mg2+; 40 mM Tris-HCl pH 7.5, 150 mM NaCl, 6 mM MgCl2, 1 mM DTT, 0.1% Tween-20, 0.2 mg/ml BSA; 25 C; 10 min per concentration, then washed
Conditions: tags: His6-TwinStrep-SUMO cleaved; N-terminal SNAP kept (SNAP-Surface 488); label: 3' end held by stalled T7 RNA polymerase

Binder | Kd [nM]
B1 | 35 ± 4
B2 | 41.3 ± 2.2
B3 | 35 ± 4
B4 | 80 ± 40
B5 | 33.5 ± 2.8
B6 | 31.5 ± 2
B7 | 14.7 ± 0.9
B8 | 20.8 ± 0.9
B9 | 30.3 ± 2.3
B10 | 19.8 ± 1.1
B11 | 40 ± 9
B12 | 35 ± 4
B13 | 11.1 ± 0.9
B14 | 60 ± 13
B15 | 51 ± 5
B16 | 9.4 ± 0.7
B17 | 12 ± 0.9

Binder | Kd [nM]
B18 | 7.21 ± 0.25
B19 | 25.6 ± 2.3
B20 | 29.1 ± 2.4
B21 | 20.7 ± 1.5
B22 | 34.6 ± 3
B23 | 14.8 ± 1.1
B24 | 21.3 ± 1.1
B25 | 8.2 ± 0.4
B26 | 60 ± 5
B27 | 4.87 ± 0.25
B28 | 13.2 ± 0.7
B29 | 6.6 ± 0.7
B30 | 37 ± 6
B31 | 17.4 ± 1
B32 | 43 ± 4
B33 | 7.47 ± 0.35
